Reference: publication PMC7891125 (Cell, 2021)

B1: mAb 316, de-glycosylated (antibody, V domains shown)
VH: not shown
VL: QAVLTQPPSASGSPGQSVTISCTGTSSDVGGYNYVSWYQQHPGKAPKLMIYEVSKRPSGVPDRFSGSKSGNTASLTVSGLQAEDEADYYCSSYAGSNHWVFGGGTKLTVL
B2: mAb 316 (antibody, V domains shown)
VH: not shown
VL: QAVLTQPPSASGSPGQSVTISCTGTSSDVGGYNYVSWYQQHPGKAPKLMIYEVSKRPSGVPDRFSGSKSGNTASLTVSGLQAEDEADYYCSSYAGSNHWVFGGGTKLTVL
B3: mAb 159 (antibody, V domains shown)
VH: EVQLVESGGGVVQPGRSLRLSCAASGFTFSSYGMHWVRQAPGKGLEWVALISYDGGNRYYADSVKGRFTISRDNSKNTLYLQMNRLRAEDTAMYYCAKDRDDGWDWYYFMDVWGKGTTVTVSS
VL: DIQLTQSPGTLSLSPGERATLSCRASQSISGNYLAWYQHKPGQAPRLLIYGASTRATGIPDRFSGSGSGTDFTLTISRLEPEDFAVYYCQQYGSSYTFGQGTKVEIK

What was measured:
[1] = biological target: His-tagged SARS-CoV-2 RBD (SARS-CoV-2 Wuhan-Hu-1 (MN908947), UniProt P0DTC2); experiment: BLI; Octet RED 96e; anti-RBD IgGs immobilised on AR2G biosensors, RBD as the analyte in serial dilutions; 1:1 global fitting model; details: both partners purified
[2] = biological target: SARS-CoV-2 spike on intact virus (SARS-CoV-2/human/AUS/VIC01/2020) (SARS-CoV-2, isolate …, strain); experiment: cell-based or functional assay

| Binder | Kd [1] [nM] | FRNT, neutralisation of authentic SARS-CoV-2 on Vero cells, IC50 [2] [ng/mL] |
| --- | --- | --- |
| B1 | 1 |  |
| B2 | 2 |  |
| B3 |  | 5 |
